# Article PMC3325594 (International Journal of Toxicology, 2012)
# Experiments:
# [1] = tested on: insulin receptor (IR) signaling; details: cited from earlier work
# female mice = assay: 2-year carcinogenicity study, survival rates in female mice; assay type: in vivo; details: 12.5 IU/kg
# female rats = assay: 2-year carcinogenicity study, survival rates in female rats; assay type: in vivo; details: 5 IU/kg
# [2] = tested on: mammary gland of young female rats; details: 26-week toxicity study; cited from earlier work
# [3] = tested on: insulin-like growth factor 1 receptor (IGF-1R); details: in vitro; cited from earlier work
# insulin receptor (IR) = details: in vitro; cited from earlier work
# mammalian cell lines = details: cited from earlier work
# rats = details: 12-month toxicity study; cited from earlier work
substance,measurement,setting,value
[Gly^A21] human insulin [M1],In vitro metabolic and mitogenic profiles,[1],comparable with human insulin
"[Gly^A21, des-Thr^B30]-human insulin [M2]",In vitro metabolic and mitogenic profiles,[1],comparable with human insulin
"NPH: neutral protamine Hagedorn (NPH) insulin, comparator group",Survival rate,female mice; week 80,56%
same,Survival rate,female mice; week 81,56%
same,Survival rate,female mice; week 82,56%
same,Survival rate,female mice; week 85,50%
same,"Survival, animals alive","female mice; week 88, of 50 initial animals",22 n
same,"Survival, animals alive","female mice; week 89, of 50 initial animals",22 n
same,Survival rate,female rats; week 80,72%
same,Survival rate,female rats; week 81,72%
same,Survival rate,female rats; week 82,72%
same,Survival rate,female rats; week 83,70%
same,Survival rate,female rats; week 84,70%
insulin detemir,Proliferative effect in the mammary gland,[2],modest proliferative effect
[Asp^B10] insulin,Affinity toward IGF-1R compared to regular human insulin,[3],higher affinity
same,Affinity toward the insulin receptor (IR) compared to regular human insulin,insulin receptor (IR),higher affinity
same,Occupancy time at the IR compared to regular human insulin,insulin receptor (IR),prolonged occupancy time
same,Proliferation rate in mammalian cell lines compared to regular human insulin,mammalian cell lines,higher proliferation rate
same,Incidence of mammary tumors,rats,higher incidence of mammary tumors
